Where no end group is shown, it is not given here. [ ]: non-standard residue; d: D form. Aib = CC(C)(N)C(=O)O
Biological target: human GLP-1 receptor (human, UniProt P43220)
Assay: cell-based or functional assay

B1: [Aib8,Glu23,Lys24,Val25,Glu30,Glu34,Lys35,Aib36,Lys37]-GLP-1-(7-37)-peptidyl-Glu-Phe-Leu amide (peptide)
peptide: H[Aib]EGTFTSDVSSYLEGEKVKEFIEWLVEK[Aib]KEFL-NH2
modifications: N-terminus assumed
SMILES: CC[C@H](C)[C@H](NC(=O)[C@H](Cc1ccccc1)NC(=O)[C@H](CCC(=O)O)NC(=O)[C@H](CCCCN)NC(=O)[C@@H](NC(=O)[C@H](CCCCN)NC(=O)[C@H](CCC(=O)O)NC(=O)CNC(=O)[C@H](CCC(=O)O)NC(=O)[C@H](CC(C)C)NC(=O)[C@H](Cc1ccc(O)cc1)NC(=O)[C@H](CO)NC(=O)[C@H](CO)NC(=O)[C@@H](NC(=O)[C@H](CC(=O)O)NC(=O)[C@H](CO)NC(=O)[C@@H](NC(=O)[C@H](Cc1ccccc1)NC(=O)[C@@H](NC(=O)CNC(=O)[C@H](CCC(=O)O)NC(=O)C(C)(C)NC(=O)[C@@H](N)Cc1c[nH]cn1)[C@@H](C)O)[C@@H](C)O)C(C)C)C(C)C)C(=O)N[C@@H](CCC(=O)O)C(=O)N[C@@H](Cc1c[nH]c2ccccc12)C(=O)N[C@@H](CC(C)C)C(=O)N[C@H](C(=O)N[C@@H](CCC(=O)O)C(=O)N[C@@H](CCCCN)C(=O)NC(C)(C)C(=O)N[C@@H](CCCCN)C(=O)N[C@@H](CCC(=O)O)C(=O)N[C@@H](Cc1ccccc1)C(=O)N[C@@H](CC(C)C)C(N)=O)C(C)C
B1 was tested, and the “CRE luciferase EC50, 0% HSA” value was 716 pM and the “CRE luciferase EC50, 1% HSA” value was 164 pM.

B2: [Aib2,Gly16,Glu21,Lys29,Aib30,Leu31,Glu32,Phe33,Leu34,Glu35,Leu36,Leu37]-Exendin-4-(1-37)-peptide amide (peptide)
peptide: H[Aib]EGTFTSDLSKQMEGEAVREFIEWLKNK[Aib]LEFLELL-NH2
modifications: N-terminus assumed
SMILES: CC[C@H](C)[C@H](NC(=O)[C@H](Cc1ccccc1)NC(=O)[C@H](CCC(=O)O)NC(=O)[C@H](CCCNC(=N)N)NC(=O)[C@@H](NC(=O)[C@H](C)NC(=O)[C@H](CCC(=O)O)NC(=O)CNC(=O)[C@H](CCC(=O)O)NC(=O)[C@H](CCSC)NC(=O)[C@H](CCC(N)=O)NC(=O)[C@H](CCCCN)NC(=O)[C@H](CO)NC(=O)[C@H](CC(C)C)NC(=O)[C@H](CC(=O)O)NC(=O)[C@H](CO)NC(=O)[C@@H](NC(=O)[C@H](Cc1ccccc1)NC(=O)[C@@H](NC(=O)CNC(=O)[C@H](CCC(=O)O)NC(=O)C(C)(C)NC(=O)[C@@H](N)Cc1c[nH]cn1)[C@@H](C)O)[C@@H](C)O)C(C)C)C(=O)N[C@@H](CCC(=O)O)C(=O)N[C@@H](Cc1c[nH]c2ccccc12)C(=O)N[C@@H](CC(C)C)C(=O)N[C@@H](CCCCN)C(=O)N[C@@H](CC(N)=O)C(=O)N[C@@H](CCCCN)C(=O)NC(C)(C)C(=O)N[C@@H](CC(C)C)C(=O)N[C@@H](CCC(=O)O)C(=O)N[C@@H](Cc1ccccc1)C(=O)N[C@@H](CC(C)C)C(=O)N[C@@H](CCC(=O)O)C(=O)N[C@@H](CC(C)C)C(=O)N[C@@H](CC(C)C)C(N)=O
B2 was tested, and the “CRE luciferase EC50, 0% HSA” value was 506 pM and the “CRE luciferase EC50, 1% HSA” value was 260 pM.

B3: [Aib8,Glu23,Val25,Lys27,Glu34,Lys35,Aib36,Lys37]-GLP-1-(7-37)-peptidyl-Glu-Phe-Leu amide (peptide)
peptide: H[Aib]EGTFTSDVSSYLEGEAVKKFIAWLVEK[Aib]KEFL-NH2
modifications: N-terminus assumed
SMILES: CC[C@H](C)[C@H](NC(=O)[C@H](Cc1ccccc1)NC(=O)[C@H](CCCCN)NC(=O)[C@H](CCCCN)NC(=O)[C@@H](NC(=O)[C@H](C)NC(=O)[C@H](CCC(=O)O)NC(=O)CNC(=O)[C@H](CCC(=O)O)NC(=O)[C@H](CC(C)C)NC(=O)[C@H](Cc1ccc(O)cc1)NC(=O)[C@H](CO)NC(=O)[C@H](CO)NC(=O)[C@@H](NC(=O)[C@H](CC(=O)O)NC(=O)[C@H](CO)NC(=O)[C@@H](NC(=O)[C@H](Cc1ccccc1)NC(=O)[C@@H](NC(=O)CNC(=O)[C@H](CCC(=O)O)NC(=O)C(C)(C)NC(=O)[C@@H](N)Cc1c[nH]cn1)[C@@H](C)O)[C@@H](C)O)C(C)C)C(C)C)C(=O)N[C@@H](C)C(=O)N[C@@H](Cc1c[nH]c2ccccc12)C(=O)N[C@@H](CC(C)C)C(=O)N[C@H](C(=O)N[C@@H](CCC(=O)O)C(=O)N[C@@H](CCCCN)C(=O)NC(C)(C)C(=O)N[C@@H](CCCCN)C(=O)N[C@@H](CCC(=O)O)C(=O)N[C@@H](Cc1ccccc1)C(=O)N[C@@H](CC(C)C)C(N)=O)C(C)C
With B3 the “CRE luciferase EC50, 0% HSA” value was 325 pM and the “CRE luciferase EC50, 1% HSA” value was 97 pM.

B4: [Aib8,Lys23,Arg24,Arg26,Glu34,Lys35,Aib36,Lys37]-GLP-1-(7-37)-peptidyl-Glu-Phe-Leu amide (peptide)
peptide: H[Aib]EGTFTSDVSSYLEGKRAREFIAWLVEK[Aib]KEFL-NH2
modifications: N-terminus assumed
SMILES: CC[C@H](C)[C@H](NC(=O)[C@H](Cc1ccccc1)NC(=O)[C@H](CCC(=O)O)NC(=O)[C@H](CCCNC(=N)N)NC(=O)[C@H](C)NC(=O)[C@H](CCCNC(=N)N)NC(=O)[C@H](CCCCN)NC(=O)CNC(=O)[C@H](CCC(=O)O)NC(=O)[C@H](CC(C)C)NC(=O)[C@H](Cc1ccc(O)cc1)NC(=O)[C@H](CO)NC(=O)[C@H](CO)NC(=O)[C@@H](NC(=O)[C@H](CC(=O)O)NC(=O)[C@H](CO)NC(=O)[C@@H](NC(=O)[C@H](Cc1ccccc1)NC(=O)[C@@H](NC(=O)CNC(=O)[C@H](CCC(=O)O)NC(=O)C(C)(C)NC(=O)[C@@H](N)Cc1c[nH]cn1)[C@@H](C)O)[C@@H](C)O)C(C)C)C(=O)N[C@@H](C)C(=O)N[C@@H](Cc1c[nH]c2ccccc12)C(=O)N[C@@H](CC(C)C)C(=O)N[C@H](C(=O)N[C@@H](CCC(=O)O)C(=O)N[C@@H](CCCCN)C(=O)NC(C)(C)C(=O)N[C@@H](CCCCN)C(=O)N[C@@H](CCC(=O)O)C(=O)N[C@@H](Cc1ccccc1)C(=O)N[C@@H](CC(C)C)C(N)=O)C(C)C
In the case of B4, the “CRE luciferase EC50, 0% HSA” value is reported as 383 pM and the “CRE luciferase EC50, 1% HSA” value is reported as 138 pM.

B5: [Aib8,Glu23,Val25,Trp30,Glu34,Lys35,Aib36,Lys37]-GLP-1-(7-37)-peptidyl-Glu-Phe-Leu amide (peptide)
peptide: H[Aib]EGTFTSDVSSYLEGEAVKEFIWWLVEK[Aib]KEFL-NH2
modifications: N-terminus assumed
SMILES: CC[C@H](C)[C@H](NC(=O)[C@H](Cc1ccccc1)NC(=O)[C@H](CCC(=O)O)NC(=O)[C@H](CCCCN)NC(=O)[C@@H](NC(=O)[C@H](C)NC(=O)[C@H](CCC(=O)O)NC(=O)CNC(=O)[C@H](CCC(=O)O)NC(=O)[C@H](CC(C)C)NC(=O)[C@H](Cc1ccc(O)cc1)NC(=O)[C@H](CO)NC(=O)[C@H](CO)NC(=O)[C@@H](NC(=O)[C@H](CC(=O)O)NC(=O)[C@H](CO)NC(=O)[C@@H](NC(=O)[C@H](Cc1ccccc1)NC(=O)[C@@H](NC(=O)CNC(=O)[C@H](CCC(=O)O)NC(=O)C(C)(C)NC(=O)[C@@H](N)Cc1c[nH]cn1)[C@@H](C)O)[C@@H](C)O)C(C)C)C(C)C)C(=O)N[C@@H](Cc1c[nH]c2ccccc12)C(=O)N[C@@H](Cc1c[nH]c2ccccc12)C(=O)N[C@@H](CC(C)C)C(=O)N[C@H](C(=O)N[C@@H](CCC(=O)O)C(=O)N[C@@H](CCCCN)C(=O)NC(C)(C)C(=O)N[C@@H](CCCCN)C(=O)N[C@@H](CCC(=O)O)C(=O)N[C@@H](Cc1ccccc1)C(=O)N[C@@H](CC(C)C)C(N)=O)C(C)C
With B5 the “CRE luciferase EC50, 0% HSA” value was 157 pM and the “CRE luciferase EC50, 1% HSA” value was 54 pM.

With HXEGTFTSDVSSYLEGQAAKEFIAWLVKKXKEFL (Aib at 8, 36; C-terminal amide) [[Aib8,Lys35,Aib36,Lys37]-GLP-1-(7-37)-peptidyl-Glu-Phe-Leu amide] the “CRE luciferase EC50, 0% HSA” value was 256 pM and the “CRE luciferase EC50, 1% HSA” value was 84 pM.

With HXEGTFTSDVSSYLEGQAAKEFIAWLVKKXGEFL (Aib at 8, 36; C-terminal amide) [[Aib8,Lys35,Aib36]-GLP-1-(7-37)-peptidyl-Glu-Phe-Leu amide] the “CRE luciferase EC50, 0% HSA” value was 45 pM and the “CRE luciferase EC50, 1% HSA” value was 15 pM.
